This note sets out measurements from patent US12662540B2, “Compositions and methods for inhibition of MICA/B shedding” (DANA-FARBER CANCER INSTITUTE, INC., priority 2017, dated 2026).

Entries after “also recorded” stand apart in the source; their conditions may differ.

The test system of one series is A375 cells. Nature of the series: NK cell cytotoxicity assay (51Cr release), human NK cells against human tumor cells. The format is cell-based. The procedure:
Human NK cells were isolated from fresh leukapheresis blood collars that had been generated by Brigham & Women's Hospital, Boston, from healthy donors. Samples were diluted with an equal volume of PBS and blood mononuclear cells were isolated by Ficoll density gradient centrifugation. Cells were washed with PBS, and NK cells were isolated by negative selection using the Human NK Cell Isolation Kit (130-092-657, Miltenyi Biotech) using an autoMACS system (Miltenyi Biotech). Enriched NK cells (purity of 50-90%) were then incubated with anti-CD56 (PE or APC conjugated) and anti-CD3 (FITC or Pacific Blue conjugated) (Biolegend) and sorted using a BD FACS Aria. Following sorting, NK cell purity was ˜99%. These cells were cultured for twelve hours in complete RPMI media supplemented with 300-1000 U/ml of recombinant human IL-2 (BD Pharmingen).
Target cells were labeled for 1 hour with 100 μCi of ^51[Cr] per 2×10^6 cells in 0.2 ml of media. Subsequently, cells were washed and plated in V-bottom 96-wells plates (5,000 target cells per well). To determine the experimental release, NK cells were added in an equal volume, but at different ratios. To determine maximum and spontaneous release, target cells were mixed with an equal volume of 2% Triton-X100 in PBS or an equal volume of media, respectively. Antibodies were added at a final concentration of 10 μg/ml.
For experiments shown in FIGS. 1E, 10, and 13E antibodies were added at the time of the killing assay. For FIGS. 3A-B, antibodies were added to tumor cells 48 hours prior to labelling with ^51[Cr] to inhibit MICAS shedding. The isotype control antibody for assays with human NK cells was recombinant human IgG1 Fc (BE0096, BioXcell). […] At the end of the incubation period, plates were centrifuged (2000 rpm, 5 minutes), part of the supernatant was collected, mixed with scintillation fluid, and radioactivity was quantified using a MicroBeta2 reader (Perkin Elmer). Specific killing was calculated using the following formula: 100×(Experimental release−Spontaneous release)/(Maximum release−Spontaneous release).

The test system of a further series is A2058 melanoma cells. Nature of the series: A2058 metastasis model (NSG mice, human NK cells). The format is in vivo. The procedure: Human NK cell reconstitution of NSG mice was done similar to a previous report (26). Briefly, human NK cells were obtained from fresh blood collars, as described above. Cells were treated overnight with 300 U/ml of recombinant human IL-2 (BD Pharmingen), and 1.5×10^6NK cells were injected intravenously into NSG mice. NK cell survival was supported by intraperitoneal injection of 75,000 U of IL-2 (Peprotech) every other day. Human NK cells survived in NSG mice for approximately one week under these conditions (data not shown) and therefore the last IL-2 injection was given 7 days following NK cell transfer. Furthermore, one day after NK cell inoculation and the first injection of IL-2, NSG mice were also injected intravenously with 1×10^6 A2058 melanoma cells. Two days later, mice were treated with 200 μg 7C6-hIgG1 or isotype control (BioXcell) and again once per week. Mice were bled at multiple time points to measure shed MICA and other serum markers. Euthanasia was performed on day 30 following tumor cell inoculation, lungs were perfused with Indian ink (as described above), fixed in Fekete's solution, and the number of lung metastases was counted. Lungs processed for histology were not perfused but fixed in formalin. Livers were also collected, fixed in formalin solution and the number of metastases was counted, or processed for histology. Following removal of these tissues, mice were fixed in Bouin fixative and processed for necropsy by the Rodent Histopathology Core (Dana-Farber/Harvard Cancer Center). The analysis was performed by a pathologist unaware of the different experimental groups.
Macrophages were depleted by intravenous injection of 0.2 ml clodronate liposomes (Encapsula NanoSciences LLC). In the humanized and B16F10-MICA metastasis models, 0.2 ml of clodronate liposomes or control liposomes were injected i.v. (on the same day of tumor cell inoculation and then once weekly).

For series [1], the system named is human NK cells. The series can be described thus: Intracellular interferon-γ production by NK cells co-cultured with tumor cells. The format is cell-based. Particulars: co-culture with tumor cells, antibody 10 μg/ml. The procedure:
NK cells were co-cultured for 6 hours at a ratio of 5:1 with tumor cells in the presence of Brefeldin-A (Biolegend). After the incubation time, Fc receptors were blocked, cells stained with NK cell markers, stained further with a dead cell marker (Zombie Yellow, Biolegend), and subsequently processed for intracellular interferon-γ labeling. Briefly, cells were fixed with BD Cytofix/Cytoperm™ Fixation and Permeabilization Solution (BD Pharmingen), permeabilized with Permeabilization Wash Buffer (Biolegend), and stained with APC-conjugated anti-human interferon-γ (4S.B3, Biolegend) or appropriate isotype control. Fluorescence spectra were acquired using a LSR Fortessa flow cytometer and analyzed by FlowJo.

Series [2] deals with human NK cells. Nature of the series: NK cell RNA-sequencing after co-culture with antibody-pretreated A375 cells. The format is cell-based. Conditions: 6 hours co-culture; A375 pretreated 48 hours. The procedure:
Human NK cells were isolated from a healthy volunteer to ˜99% purity. These cells were pre-activated with 1,000 U/ml IL-2 overnight. A375 tumor cells were pre-treated with 10 μg/ml of 7C6-hIgG1 or isotype control (BioXcell BE0096) antibodies for 48 hours. Cells were then washed and NK cells were co-cultured with tumor cells for 6 hours in a 5:1 ratio. Subsequently, human NK cells were re-sorted and total RNA isolated with genomic DNA digestion with QIAGEN RNeasy RNA isolation kit (74134). RNA sequencing libraries were generated using the Kapa mRNAseq kit (KapaBiosystems). The libraries were analyzed by Next-Generation Sequencing and pooled barcoded samples were subjected to VIPER analysis. RNA levels were compared for NK cells from co-cultures treated with 7C6-hIgG1 versus isotype control antibodies. A cut-off of at least 1 Log2 fold change was applied to select genes that were differentially expressed. Gene set enrichment analysis (GSEA) was also performed in order to identify relevant molecular pathways for differentially expressed mRNAs.

The next series relates to Kupffer cells. The series can be described thus: Analysis of liver macrophages in humanized metastasis model. The series is classed as in vivo, NSG mice. Conditions: three weeks after tumor cell inoculation. On the procedure:
NSG mice were injected i.v with A2058 cells and treated with 7C6-hgG1 or isotype control antibodies as described above. Three weeks following tumor cell inoculation, mice were euthanized and livers were perfused with PBS through the portal vein. Livers were mechanically dissociated and cell suspensions passed through a 70 □ filter. […] Antibodies used for subsequent labeling were APC-CD45.2, APC-CD45.1, BV785-CD11b, BV421-F4/80, BV650-CD80, PE-CD86, FITC-Ly6C, PE-Cy7-Ly6G, PERCP-Cy5.5-CD16/CD32 and Zombie NIR. Cells were acquired in a Sony Spectral Analyzer and data were analyzed by FlowJo.

The subject of a further series is human macrophages. Nature of the series: Inhibition of MICA shedding by macrophages. Conditions: acetylated-LDL, 24 hours, antibody 10 μg/ml. The series is classed as cell-based. The procedure: PBMC were isolated from a leukapheresis collar obtained from a healthy donor, and monocytes were isolated by adherence to tissue culture plates (2 hour incubation). Non-adherent cells were then washed away and M-CSF was added at 100 ng/ml in RPMI-1640 media supplemented with 10% FBS, Glutamax and Penicillin/Streptomycin. Visual inspection of cell morphology on day 5 confirmed that monocytes had differentiated into macrophages. Macrophages were treated for 24 hours in 96-well plates with different concentrations of acetylated LDL as well as MICA antibodies (10 μg/ml). Shed MICA in supernatants was examined by ELISA (Abcam) and cell surface density of MICA/B was quantified by flow cytometry.

B1: 7C6-hIgG1: recombinant 7C6 with Fc segment replaced by human IgG1 (antibody, V domains shown)
VH: QIQLVQSGPELKKPGETVKVSCKASGYMFTNYAMNWVKQAPEKGLKWMGWINTHTGDPTYADDFKGRIAFSLETSASTAYLQINNLKNEDTATYFCVRTYGNYAMDYWGQGTSVTVSS
VL: DIQMTQTTSSLSASLGDRVTISCSASQDISNYLNWYQQKPDGTVKLLIYDTSILHLGVPSRFSGSGSGTDYSLTISNLEPEDIATYYCQQYSKFPRTFGGGTTLEIK
Turning to B1, in the series on A375 cells (A375 treated 48 hours, 4 hour co-culture with human NK cells), the “NK cell-mediated cytotoxicity against antibody-pretreated A375 cells” value is on record as “triggered stronger NK cell-mediated cytotoxicity than the 7C6-hIgG1-DANA mutant”. The “NK cell mediated cytotoxicity against human tumor cells” value with A375 cells (human NK cells, antibody added at time of killing assay (10 μg/ml, 66.7 nM)) is recorded as “enabled strong NK cell mediated killing of human tumor cells; also recorded: exhibit cytotoxicity against A375 cells”. Further, the “number of lung metastases” value in the series on A2058 melanoma cells (NSG mice reconstituted with human NK cells, day 30) is on record as “had fewer lung metastases; also recorded: reduces number of lung metastases in the presence of human NK cells”. Besides, the “activity against liver metastases after macrophage depletion” value with A2058 melanoma cells (clodronate liposomes, no NK cell reconstitution, 3 weeks) is “abrogated the therapeutic activity”. Moreover, in the series on A2058 melanoma cells (day 30), the “number of organs with metastases (metastatic load)” value is recorded as “reduced the number of organs with metastases; also recorded: significantly reduced metastatic load in the absence of transferred NK cells”. For the same molecule, the survival result with A2058 melanoma cells (mice reconstituted with human NK cells) is on record as “significant survival benefit; also recorded: increases the survival of mice”. Besides, the “number of liver metastases” value in the series on A2058 melanoma cells (with or without NK cell transfer, day 30) is “substantially reduced the number of liver metastases even without NK cell transfer; also recorded: shows significant therapeutic activity against liver metastases even in the absence of NK cells”. In the series on human NK cells [1], the “IFNγ (cytokine) production by human NK cells” value is recorded as “produced higher levels of IFNγ”. Besides, the “gene expression by human NK cells” value in the series on human NK cells [2] is “upregulated genes associated with NK cell activation and effector functions”. Besides, the “CD80 expression by Kupffer cells” value in the series on Kupffer cells is “higher surface levels of the CD80 activation marker; also recorded: increased expression of CD80 by Kupffer cells”. Also, in the series on human macrophages, the “MICA and MICB surface levels on macrophages” value is “increased MICA and MICB surface levels on macrophages”; the “MICA shedding by macrophages” value is reported as “inhibited MICA shedding”.
